Assay results from US20260049138A1 (Chugai, published 2026).

Biological target: T1, CD3ε homodimer protein (human, UniProt P07766 23-126, limits assumed, sulfo-tag or biotin label in the ECL assays; amine-coupled to the chip in SPR)
T1 construct: also called human CD3ε homodimer protein; CD3 (CD3ε)
Assay: SPR Biacore T200; CD3ε homodimer on CM4 chip;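 also: Single-residue variant antibodies injected as analyte over CD3ε homodimer immobilized by amine coupling, run at 25 °C in HBS-EP+ buffer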
Experimental: An appropriate amount of CD3ε homodimer protein was immobilized onto Sensor chip CM4 (GE Healthcare Japan Corp.) by the amine coupling method. Then, the antibody having an appropriate concentration was injected thereto as an analyte and allowed to interact with the CD3ε homodimer protein on the sensor chip. Then, the sensor chip was regenerated by the injection of 10 mmol/L glycine-HCl (pH 1.5). The assay was conducted at 25° C., and HBS-EP+ (GE Healthcare Japan Corp.) was used as a running buffer. […] Each parameter was calculated using Biacore T200 Evaluation Software (GE Healthcare Japan Corp.).

T1 sequence (P07766 23-126 limits assumed): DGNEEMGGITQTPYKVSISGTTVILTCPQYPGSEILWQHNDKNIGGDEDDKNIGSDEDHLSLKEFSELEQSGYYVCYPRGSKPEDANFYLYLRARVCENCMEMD

| ratio of amounts bound Z=Y/X (altered form / CE115HA000) | Binder |
| --- | --- |
| 0.92 | CE115HA000 S62D one-arm antibody (antibody, human IgG1, kappa, L234A L235A, N297A, name in Kabat numbering) heavy: QVQLVESGGGVVQPGRSLRLSCAASGFTFSNAWMHWVRQAPGKGLEWVAQIKAKSNNYATYYAEDVKGRFTISRDDSKNSLYLQMNSLKTEDTAVYYCRYVHYGAYYGVDAWGQGTTVTVSSASTKGPSVFPLAPSSKSTSGGTAALGCLVKDYFPEPVTVSWNSGALTSGVHTFPAVLQSSGLYSLSSVVTVPSSSLGTQTYICNVNHKPSNTKVDKKVEPKSCDKTHTCPPCPAPEAAGGPSVFLFPPKPKDTLMISRTPEVTCVVVDVSHEDPEVKFNWYVDGVEVHNAKTKPREEQYASTYRVVSVLTVLHQDWLNGKEYKCKVSNKALPAPIEKTISKAKGQPREPQVYTLPPSRCELTKNQVSLSCAVKGFYPSDIAVEWESNGQPENNYKTTPPVLDSDGSFFLVSKLTVDKSRWQQGNVFSCSVMHEALHNHYTQKSLSLSPDYKDDDDK EPKSSDKTHTCPPCPAPELLGGPSVFLFPPKPKDTLMISRTPEVTCVVVDVSHEDPEVKFNWYVDGVEVHNAKTKPREEQYNSTYRVVSVLTVLHQDWLNGKEYKCKVSNKALPAPIEKTISKAKGQPREPQVCTLPPSRDELTKNQVSLWCLVKGFYPSDIAVEWESNGQPENNYKTTPPVLDSDGSFFLYSKLTVDKSRWQQGNVFSCSVMHEALHNRYTQKSLSLSP light: DIVMTQSPLSLPVTPGEPASISCRSSQSLVHSNRNTYLHWYQQKPGQAPRLLIYKVSNRFSGVPDRFSGSGSGTDFTLKISRVEAEDVGVYYCGQGTQVPYTFGQGTKLEIKRTVAAPSVFIFPPSDEQLKSGTASVVCLLNNFYPREAKVQWKVDNALQSGNSQESVTEQDSKDSTYSLSSTLTLSKADYEKHKVYACEVTHQGLSSPVTKSFNRGEC |
| 0.91 | CE115HA000 S74P one-arm antibody (antibody, human IgG1, kappa, L234A L235A, N297A, name in Kabat numbering) heavy: QVQLVESGGGVVQPGRSLRLSCAASGFTFSNAWMHWVRQAPGKGLEWVAQIKAKSNNYATYYAESVKGRFTISRDDPKNSLYLQMNSLKTEDTAVYYCRYVHYGAYYGVDAWGQGTTVTVSSASTKGPSVFPLAPSSKSTSGGTAALGCLVKDYFPEPVTVSWNSGALTSGVHTFPAVLQSSGLYSLSSVVTVPSSSLGTQTYICNVNHKPSNTKVDKKVEPKSCDKTHTCPPCPAPEAAGGPSVFLFPPKPKDTLMISRTPEVTCVVVDVSHEDPEVKFNWYVDGVEVHNAKTKPREEQYASTYRVVSVLTVLHQDWLNGKEYKCKVSNKALPAPIEKTISKAKGQPREPQVYTLPPSRCELTKNQVSLSCAVKGFYPSDIAVEWESNGQPENNYKTTPPVLDSDGSFFLVSKLTVDKSRWQQGNVFSCSVMHEALHNHYTQKSLSLSPDYKDDDDK EPKSSDKTHTCPPCPAPELLGGPSVFLFPPKPKDTLMISRTPEVTCVVVDVSHEDPEVKFNWYVDGVEVHNAKTKPREEQYNSTYRVVSVLTVLHQDWLNGKEYKCKVSNKALPAPIEKTISKAKGQPREPQVCTLPPSRDELTKNQVSLWCLVKGFYPSDIAVEWESNGQPENNYKTTPPVLDSDGSFFLYSKLTVDKSRWQQGNVFSCSVMHEALHNRYTQKSLSLSP light: DIVMTQSPLSLPVTPGEPASISCRSSQSLVHSNRNTYLHWYQQKPGQAPRLLIYKVSNRFSGVPDRFSGSGSGTDFTLKISRVEAEDVGVYYCGQGTQVPYTFGQGTKLEIKRTVAAPSVFIFPPSDEQLKSGTASVVCLLNNFYPREAKVQWKVDNALQSGNSQESVTEQDSKDSTYSLSSTLTLSKADYEKHKVYACEVTHQGLSSPVTKSFNRGEC |
| 1 | CE115HA000 S62P one-arm antibody (antibody, human IgG1, kappa, L234A L235A, N297A, name in Kabat numbering) heavy: QVQLVESGGGVVQPGRSLRLSCAASGFTFSNAWMHWVRQAPGKGLEWVAQIKAKSNNYATYYAEPVKGRFTISRDDSKNSLYLQMNSLKTEDTAVYYCRYVHYGAYYGVDAWGQGTTVTVSSASTKGPSVFPLAPSSKSTSGGTAALGCLVKDYFPEPVTVSWNSGALTSGVHTFPAVLQSSGLYSLSSVVTVPSSSLGTQTYICNVNHKPSNTKVDKKVEPKSCDKTHTCPPCPAPEAAGGPSVFLFPPKPKDTLMISRTPEVTCVVVDVSHEDPEVKFNWYVDGVEVHNAKTKPREEQYASTYRVVSVLTVLHQDWLNGKEYKCKVSNKALPAPIEKTISKAKGQPREPQVYTLPPSRCELTKNQVSLSCAVKGFYPSDIAVEWESNGQPENNYKTTPPVLDSDGSFFLVSKLTVDKSRWQQGNVFSCSVMHEALHNHYTQKSLSLSPDYKDDDDK EPKSSDKTHTCPPCPAPELLGGPSVFLFPPKPKDTLMISRTPEVTCVVVDVSHEDPEVKFNWYVDGVEVHNAKTKPREEQYNSTYRVVSVLTVLHQDWLNGKEYKCKVSNKALPAPIEKTISKAKGQPREPQVCTLPPSRDELTKNQVSLWCLVKGFYPSDIAVEWESNGQPENNYKTTPPVLDSDGSFFLYSKLTVDKSRWQQGNVFSCSVMHEALHNRYTQKSLSLSP light: DIVMTQSPLSLPVTPGEPASISCRSSQSLVHSNRNTYLHWYQQKPGQAPRLLIYKVSNRFSGVPDRFSGSGSGTDFTLKISRVEAEDVGVYYCGQGTQVPYTFGQGTKLEIKRTVAAPSVFIFPPSDEQLKSGTASVVCLLNNFYPREAKVQWKVDNALQSGNSQESVTEQDSKDSTYSLSSTLTLSKADYEKHKVYACEVTHQGLSSPVTKSFNRGEC |

The remaining lines, values behind:

| Binder | ratio of amounts bound Z=Y/X (altered form / CE115HA000) |
| --- | --- |
| CE115HA000 S62E one-arm antibody (antibody, human IgG1, kappa, L234A L235A, N297A, name in Kabat numbering) heavy: QVQLVESGGGVVQPGRSLRLSCAASGFTFSNAWMHWVRQAPGKGLEWVAQIKAKSNNYATYYAEEVKGRFTISRDDSKNSLYLQMNSLKTEDTAVYYCRYVHYGAYYGVDAWGQGTTVTVSSASTKGPSVFPLAPSSKSTSGGTAALGCLVKDYFPEPVTVSWNSGALTSGVHTFPAVLQSSGLYSLSSVVTVPSSSLGTQTYICNVNHKPSNTKVDKKVEPKSCDKTHTCPPCPAPEAAGGPSVFLFPPKPKDTLMISRTPEVTCVVVDVSHEDPEVKFNWYVDGVEVHNAKTKPREEQYASTYRVVSVLTVLHQDWLNGKEYKCKVSNKALPAPIEKTISKAKGQPREPQVYTLPPSRCELTKNQVSLSCAVKGFYPSDIAVEWESNGQPENNYKTTPPVLDSDGSFFLVSKLTVDKSRWQQGNVFSCSVMHEALHNHYTQKSLSLSPDYKDDDDK EPKSSDKTHTCPPCPAPELLGGPSVFLFPPKPKDTLMISRTPEVTCVVVDVSHEDPEVKFNWYVDGVEVHNAKTKPREEQYNSTYRVVSVLTVLHQDWLNGKEYKCKVSNKALPAPIEKTISKAKGQPREPQVCTLPPSRDELTKNQVSLWCLVKGFYPSDIAVEWESNGQPENNYKTTPPVLDSDGSFFLYSKLTVDKSRWQQGNVFSCSVMHEALHNRYTQKSLSLSP light: DIVMTQSPLSLPVTPGEPASISCRSSQSLVHSNRNTYLHWYQQKPGQAPRLLIYKVSNRFSGVPDRFSGSGSGTDFTLKISRVEAEDVGVYYCGQGTQVPYTFGQGTKLEIKRTVAAPSVFIFPPSDEQLKSGTASVVCLLNNFYPREAKVQWKVDNALQSGNSQESVTEQDSKDSTYSLSSTLTLSKADYEKHKVYACEVTHQGLSSPVTKSFNRGEC | 0.92 |
| CE115HA000 S62K one-arm antibody (antibody, human IgG1, kappa, L234A L235A, N297A, name in Kabat numbering) heavy: QVQLVESGGGVVQPGRSLRLSCAASGFTFSNAWMHWVRQAPGKGLEWVAQIKAKSNNYATYYAEKVKGRFTISRDDSKNSLYLQMNSLKTEDTAVYYCRYVHYGAYYGVDAWGQGTTVTVSSASTKGPSVFPLAPSSKSTSGGTAALGCLVKDYFPEPVTVSWNSGALTSGVHTFPAVLQSSGLYSLSSVVTVPSSSLGTQTYICNVNHKPSNTKVDKKVEPKSCDKTHTCPPCPAPEAAGGPSVFLFPPKPKDTLMISRTPEVTCVVVDVSHEDPEVKFNWYVDGVEVHNAKTKPREEQYASTYRVVSVLTVLHQDWLNGKEYKCKVSNKALPAPIEKTISKAKGQPREPQVYTLPPSRCELTKNQVSLSCAVKGFYPSDIAVEWESNGQPENNYKTTPPVLDSDGSFFLVSKLTVDKSRWQQGNVFSCSVMHEALHNHYTQKSLSLSPDYKDDDDK EPKSSDKTHTCPPCPAPELLGGPSVFLFPPKPKDTLMISRTPEVTCVVVDVSHEDPEVKFNWYVDGVEVHNAKTKPREEQYNSTYRVVSVLTVLHQDWLNGKEYKCKVSNKALPAPIEKTISKAKGQPREPQVCTLPPSRDELTKNQVSLWCLVKGFYPSDIAVEWESNGQPENNYKTTPPVLDSDGSFFLYSKLTVDKSRWQQGNVFSCSVMHEALHNRYTQKSLSLSP light: DIVMTQSPLSLPVTPGEPASISCRSSQSLVHSNRNTYLHWYQQKPGQAPRLLIYKVSNRFSGVPDRFSGSGSGTDFTLKISRVEAEDVGVYYCGQGTQVPYTFGQGTKLEIKRTVAAPSVFIFPPSDEQLKSGTASVVCLLNNFYPREAKVQWKVDNALQSGNSQESVTEQDSKDSTYSLSSTLTLSKADYEKHKVYACEVTHQGLSSPVTKSFNRGEC | 1.19 |
| CE115HA000 S74A one-arm antibody (antibody, human IgG1, kappa, L234A L235A, N297A, name in Kabat numbering) heavy: QVQLVESGGGVVQPGRSLRLSCAASGFTFSNAWMHWVRQAPGKGLEWVAQIKAKSNNYATYYAESVKGRFTISRDDAKNSLYLQMNSLKTEDTAVYYCRYVHYGAYYGVDAWGQGTTVTVSSASTKGPSVFPLAPSSKSTSGGTAALGCLVKDYFPEPVTVSWNSGALTSGVHTFPAVLQSSGLYSLSSVVTVPSSSLGTQTYICNVNHKPSNTKVDKKVEPKSCDKTHTCPPCPAPEAAGGPSVFLFPPKPKDTLMISRTPEVTCVVVDVSHEDPEVKFNWYVDGVEVHNAKTKPREEQYASTYRVVSVLTVLHQDWLNGKEYKCKVSNKALPAPIEKTISKAKGQPREPQVYTLPPSRCELTKNQVSLSCAVKGFYPSDIAVEWESNGQPENNYKTTPPVLDSDGSFFLVSKLTVDKSRWQQGNVFSCSVMHEALHNHYTQKSLSLSPDYKDDDDK EPKSSDKTHTCPPCPAPELLGGPSVFLFPPKPKDTLMISRTPEVTCVVVDVSHEDPEVKFNWYVDGVEVHNAKTKPREEQYNSTYRVVSVLTVLHQDWLNGKEYKCKVSNKALPAPIEKTISKAKGQPREPQVCTLPPSRDELTKNQVSLWCLVKGFYPSDIAVEWESNGQPENNYKTTPPVLDSDGSFFLYSKLTVDKSRWQQGNVFSCSVMHEALHNRYTQKSLSLSP light: DIVMTQSPLSLPVTPGEPASISCRSSQSLVHSNRNTYLHWYQQKPGQAPRLLIYKVSNRFSGVPDRFSGSGSGTDFTLKISRVEAEDVGVYYCGQGTQVPYTFGQGTKLEIKRTVAAPSVFIFPPSDEQLKSGTASVVCLLNNFYPREAKVQWKVDNALQSGNSQESVTEQDSKDSTYSLSSTLTLSKADYEKHKVYACEVTHQGLSSPVTKSFNRGEC | 1.05 |
